From patent publication US20250186623A1, “EXPRESSION SYSTEM FOR THE TREATMENT OF CANCER” (FUNDACION PARA LA INVESTIGACION MEDICA APLICADA, priority 2022, published 2025)

What was measured:
[1] = system: B16 cells transduced with AAV8-ISREx4-LucmiR122T; experiment: Radiation and IFN signaling on activation of the ISREx4 promoter (luciferase); format: cell-based, murine
From the text: The ISREx4 promoter responds to interferon downstream signaling.

[2] = system: human HEK293T cells stably expressing hSTINGmut; experiment: Luciferase activity under synthetic promoters (pGL3-basic plasmids); format: cell-based; conditions: for luciferase activity / inducibility upon DMXAA: DMXAA 50 μg/mL, 48 h; for leakage in the absence of DMXAA: vehicle
From the text: (§1) As described above, the specificity of the promoters used in the previous experiments was somewhat poor. […] In order to achieve this, synthetic promoters have been generated.
(§2) Seven different promoters were generated, namely short STATx4 (4 STAT motifs separated by 6 nucleotides according to SEQ ID NO: 26), IRSF3×4 (4 IRSF3 motifs separated by 20 nucleotides according to SEQ ID NO: 27), short IRSF3×4 (4 IRSF3 motifs separated by 6 nucleotides according to SEQ ID NO: 28), ISREx4 (4 ISRE motifs separated by 20 nucleotides according to SEQ ID NO: 12), short ISREx4 (4 ISRE motifs separated by 6 nucleotides according to SEQ ID NO: 13), NFκBx4 (4 NFκB motifs separated by 20 nucleotides according to SEQ ID NO: 29) and short NFκBx4 (4 NFκB motifs separated by 6 nucleotides according to SEQ ID NO: 30). […] In addition, a plasmid containing the luciferase sequence under the control of the murine IFN-β-promoter (mIFN-β) and a plasmid containing the luciferase sequence under the control of CXCL10-promoter were used as controls. Either MC38 cells or human HEK293T cells, both which stably expressed hSTINGmut as described above (example 1), were transfected with the indicated plasmids using Lipofectamine3000 according to the manufacturers protocol, whereas a negative control was mock-transfected (Basic).

[3] = system: MC38 cell lines stably expressing hSTINGmut; experiment: Luciferase activity under modified IFN-β promoters; format: cell-based, murine
From the text: Therefore, the objective of this experiment was to examine the specificity of different modified IFN-β promoters in their response to DMXAA-induced STING activity.
To this end, five different modifications of the IFN-β promoter (short IFN-β A according to SEQ ID NO: 18, short IFN-β B according to SEQ ID NO: 19, short IFN-β C according to SEQ ID NO: 20, short IFN-β D according to SEQ ID NO: 21, short IFN-β E according to SEQ ID NO: 22) were designed. Lentiviral vectors encoding luciferase under the control of these five different promoters were constructed. […] After another 3 h (FIG. 3A) or 3 and 6 h (FIGS. 3B, 3C, 3D) or 6 h (FIGS. 3E, 3F, 3G and 3H), cells were homogenized in 50 μL of Passive Lysis Buffer (Promega) and frozen in dry ice. After 3 cycles of thaw-vortex-freeze to ensure lysis, cells were spun at 12000 g for 2 min at 4° C. 20 μL were added to a luminometer 96-well plate and luciferase activity was determined using the respective substrates D-Luciferin and Coelenterazine.

[4] = system: MC38 cells stably expressing hSTINGmut; experiment: Luciferase activity under synthetic promoters (pGL3-basic plasmids); format: cell-based, murine; conditions: DMXAA 50 μg/mL, 48 h
From the text: as §1, §2

[5] = system: MC38 cell lines stably expressing hSTINGmut; experiment: Luciferase activity under chemokine promoters; format: cell-based, murine
From the text: Therefore, the objective of this experiment was to examine the specificity of these promoters in their response to DMXAA-induced STING activity.
The CXCL9-promoter (CXCL9 according to SEQ ID NO: 23) and the CXCL10-promoter (CXCL10 according to SEQ ID NO: 24) were used for the following experiment. To this end, lentiviral vectors encoding luciferase under the control of these two different promoters were constructed. […] In addition, the lentiviral vectors encoding the short IFN-β A promoter, the short IFN-β B promoter, the short IFN-β C promoter described in experiment 1 were used as a comparison. […] After another 3 or 6 h, cells were harvested and luciferase activity measured as described in experiment 1.

[6] = system: MC38 cell lines stably expressing hSTINGmut; experiment: scIL-12 mRNA (qPCR) and secreted protein (ELISA) under STING-activity dependent promoters; format: cell-based, murine
From the text: The CXCL9-promoter and the CXCL10-promoter from experiment 2, and a full length IFN-β-promoter (IFN-β according to SEQ ID NO: 25) were used for the following experiment. To this end, lentiviral vectors encoding murine scIL-12 under the control of these three different promoters were constructed. […] After the indicated time points, cells were harvested. The cell lysate was used to measure scIL-12 mRNA expression by qPCR as described before (example 1, experiment 1), whereas the supernatant was used to measure secreted scIL-12 protein in NUNC MaxiSorp flat-bottom 96-well plates using an ELISA assay kit (OptEIA, Mouse IL-12 (p70), BD Biosciences, San Diego, CA USA), following manufacturer's instructions.

[7] = 1,000 IU interferon alone (0 Gy)
[8] = 1,000 IU interferon together with radiation (8 Gy)

With IFN-α the luciferase activity [1, 7] was “significantly increased luciferase activity” and the luciferase activity [1, 8] was “induced luciferase activity dramatically”.

B1: ISREx4-promoter: 4 ISRE motifs separated by 20 nucleotides according to SEQ ID NO: 12 (nucleic acid)
DNA: ATCTCTGCGATGAACCTCACAGTTTCGCTTTCTATCTCTGCGATGAACCTCACAGTTTCGCTTTCTATCTCTGCGATGAACCTCACAGTTTCGCTTTCTATCTCTGCGATGAACCTCACAGTTTCGCTTTCTGTGCCTCTTATGATCTGGATCTCGAGCCATGGTCGAGGCCTGTAGGCGTGTACGGTGGGAGGCTTATATAAGCAGAGCTC
modifications: misc_feature 1..212 ISREx4
In the case of B1, the “luciferase activity / inducibility upon DMXAA” value [2] is reported as “highest inducibility” and the “leakage in the absence of DMXAA” value [2] is reported as “undetectable leakage”.

B2: short IFN-β A promoter: modification of the IFN-β promoter according to SEQ ID NO: 18 (nucleic acid)
DNA: CAGGAGCTTGAATAAAATGAATATTAGAAGCTGTTAGAATAAGAGAAAATGACAGAGGAAAACTGAAAGGGAGAACTGAAAGTGGGAAATTCCTCTGAGGCAGAAAGGACCATCCCTTATAAATAGCACAGGCCATGAAGGAAGATCATTCTCACTGCAGCCTTTGACAGCCTTTGCCTCATCTTGCAGGTAGCAGCCGACACCAGCCTGGCTTCCATC
modifications: misc_feature 1..219 short IFNb A-promoter
B2 was tested, and the “luciferase activity upon DMXAA treatment” value ([3]; DMXAA 50 μg/mL, 3 h) was “highest luciferase activity” and the “luciferase activity in the absence of DMXAA (leaky expression)” value ([3]; vehicle) was “significant luciferase activity”.

B3: IFN-γ: exogenously added interferon, 1,000 IU (protein, UniProt P01579 24-161, looked up)
Interferon gamma: QDPYVKEAENLKKYFNAGHSDVADNGTLFLGILKNWKEESDRKIMQSQIVSFYFKLFKNFKDDQSIQKSVETIKEDMNVKFFNSNKKKRDDFEKLTNYSVTDLNVQRKAIHELIQVMAELSPAAKTGKRKRSQMLFRG
For B3, the luciferase activity [1, 7] was “significantly increased luciferase activity” and the luciferase activity [1, 8] was “induced luciferase activity dramatically”.

B4: short STAT-promoter: 4 STAT motifs separated by 6 nucleotides according to SEQ ID NO: 26 (nucleic acid)
DNA: ATCTCTGCGATGAACCTCACTTCGCTAGAAATCTCTGCGATGAACCTCACTTCGCTAGAAATATCTCTGCGATGAACCTCACTTCGCTAGAAATCTCTGCGATGAACCTCACTTCGCTAGAAGTGCCTCTTATGATCTGGATCTCGAGCCATGGTCGAGGCCTGTAGGCGTGTACGGTGGGAGGCTTATATAAGCAGAGCTC
modifications: misc_feature 1..202 STATx4
For B4, the “luciferase activity / inducibility upon DMXAA” value [4] was “poor inducibility”.

B5: CXCL10-promoter: CXCL10-promoter according to SEQ ID NO: 24 (nucleic acid, listed as Mus musculus)
DNA: TCTAACTGTTCACTAAGTTGTATAGACTTTGGATCTGGCTAAATTTGGCGTGTGATTTTTTTTTAAAGTTTATTCCAAGTATTTTATAATAAAGCATATGAAGTAAAAAGCAAAAATAAACAGTGTAAACACAACAAATGTAAAAACCATGGTTAGAACCTGACTTAGATATCAGTTCTGTGTTTTATTTATGAGAGAAGGAAGATGAGAATTAAAGCCATTTCCAGACTTATTCTGCAAGGCACTGCATCTGATTTCTCAAACAGCTCACGCTTTGGAAAGTGAAACTTACCTCACTCGTTAAAAATTAAAAGGAGCACAAGAGGGGAGAGGGAAATTCCAAGTTCATGGGTCACAATAAACACAAGCAATGCCCTCGGTTTACAGGGGACTTCCCTCGGGTTGCGGAGCCTTGCTGAGTCATCTCCAAAGTCAGCCAATCAGGACTCAGGGAGGGAAACTCTTTGCAGATAAATACTCCTCAGCAGCCGGCACTCGAGAAGCGCTTCATCCACCGCTGAGAGACATCCCGAGCCAACCTTCCGGAAGCCTCCCCATCAGCACC
modifications: misc_feature 1..565 CXCL10-promoter
With B5 the “luciferase activity upon DMXAA administration” value ([5]; DMXAA 50 μg/mL, 3 or 6 h) was “significantly higher luciferase activities”, the “luciferase activity in the absence of DMXAA (leaky expression)” value ([5]; vehicle) was “significant luciferase activity” and the “scIL-12 mRNA or protein expression upon DMXAA treatment” value ([6]; DMXAA 50 μg/mL) was “highly upregulated”. For the same molecule, the “scIL-12 production in the absence of DMXAA (leakage)” value ([6]; vehicle) was “significant leakage”, the “luciferase activity / inducibility upon DMXAA” value [2] was “highest inducibility” and the “leakage in the absence of DMXAA” value [2] was “considerable leakage”.
